Measurements as given in the nanobody polyreactivity screen of Harvey et al. (2022).

Experiment: yeast display, Sf9 membrane polyspecificity reagent, FACS + sequencing; frameworks hold sequencing errors
Outline: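 Nanobodies from a synthetic yeast display library (Saccharomyces cerevisiae BJ5465), induced 36–48 hours with galactose, were stained 1 hour at 4 °C with 10% biotinylated, detergent-solubilized Sf9 membrane reagent, enriched on streptavidin microbeads, then FACS-sorted. Anti-HA (expression) and streptavidin (reagent binding) fluorescence set low and high (top ~1%) gates. Polyreactivity labels come from the gate of origin. Genes were colony-PCR amplified, MiSeq 2 × 250 sequenced and filtered by CDR length.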

Sequence | polyreactivity (PSR sort gate)
QVQLVESGGGLVQAGGSLRLSSAASGSTFGKYARGWYRQAPGKERELVAAITVNAGRTYYADSVKGRFTISRDNAKNTVYLQLNSLKPEDTAVYYCAGVPRRYYARYYYWGQGTQVTVSS | high polyreactivity
QVQLVESGGGLVQAGGSLRLSSAASGSTFGPYPMGWYRPAPGKERELVATISSGGSTYYADSVKGRFTISRDNAKNTVYLQMNSLKPEDTAVYYCAARYWSIYDYWGQGTQVTVSS | low polyreactivity
QVQLVESGGGLVQAGGSLRLSSAASGSTFGYYAMRWYRQAPGKARELVAAISSAGSTNDADSVKGRFTISRDNAKNTVYLQMNSLKPEDTAVYYCAAKVRVRWHTGLVTRDYDCGQGTQVTVSS | high polyreactivity
QVQLVESGGGLVQAGGSLRLSSAASGSTFHLYAMGWYRQAPGKEREFVAAIRGRGGNTYADSVKGRFTISRDNAKNTVYLQMNSLKPEDTAVYYCAAPLLRDLRSPYSYNYWGQGTQVTVSS | low polyreactivity
QVQLVESGGGLVQAGGSLRLSSAASGSTFIGNAMGWYRQAPGTARELVAAITRSGGSTFYADSVKGRFTISRDNAKNTVYLQMNSLKPDDTAVYYCASKGNPYRVPCSSYPKVNYWGQGTQVTVSS | high polyreactivity
QVQLVESGGGLVQAGGSLRLSSAASGSTFQLYAMRLYRQAPGKETELVAAISGIGDSTYYADSVKGGFTISRDNAKNTVYLQMNSLKPEDTAVYYCAREFSDGLSGKFDYWGQGTQVTGSS | low polyreactivity
QVQLVESGGGLVQAGGSLRLSSAASGSTFSDYAMGWYRQAPGKERELVAGITGGGGTYYADSVKGRFTISRDNAKNTVYLQMNSLKPEDTAVYYCAAGRRHGFGYWGQGTQVTVSS | low polyreactivity
QVQLVESGGGLVQAGGSLRLSSAASGSTFTVNGMGWYSQAPGKERELVAAIDGGDGSTYYADSVKGRFTISRDNAKNTVYLQMTSLKPEDTAVYYCAADPPGFTQYGYWGQGTQVTVSS | low polyreactivity
QVQLVESGGGLVQAGGSLRLSSAASGSTFWVNTMGWYRQAPGKERELVAGSTSNGGSTSYADSVKGRFTITRDNAKNTVYLQKNSLKPEDTAVYYCNADTYPDYWAYLYDYWGQGTQVTVSS | low polyreactivity
QVQLVESGGGLVQAGGSLRLSSAASGSTFYQYAMGWYRQAPGKERELVAAISWDSGSTYYADSVKGRFTISRDNAKNTVYLQMNSLKPEDTAVYYCAASWYGYYDGYAVEYDYWGQGTQVTVSS | low polyreactivity
QVQLVESGGGLVQAGGSLRLSSAASGSTFYYNAMGWYRQAPGKEREFVAAITYTGGSTDYADSVKGRFTISRDNAKNTVYLQMNSLKPEDTAVYYCAKGTYGYISTWYDYWGQGTQVTVSS | low polyreactivity
QVQLVESGGGLVQAGGSLRLSSAASGSTIVLYTMGWYRQAPGKEWELVAAITNGTRTYYADSVKGRFTISRDNAKNTVYLQMNSLKPQDTAVYYCAVDGVKRGADLFYYWGHGTQVTVSS | high polyreactivity
QVQLVESGGGLVQAGGSLRLSSAASGSTLQYNAMGWYRQAPGKERELVASITWSDGSTYYADSVKGRFTISRDNAKNTVYLQMNSLKPEDTAVYYCNRDDQPALWSSGGYNYWGQGTQVTVSS | high polyreactivity
QVQLVESGGGLVQAGGSLRLSSAASGSTLVYYDRGWYRQAPGKERELVATITGTDSTYYADSVKGRFTISRDNAKNTVYLQMNSLKPVDTADCAADRAASRPVYDYWGQGTQVTVSS | low polyreactivity
QVQLVESGGGLVQAGGSLRLSSAASGSTSCPYAMGWYRQAPGKERELVATISWIGDRTYYADSVKGRFTISRDNAKNTFYLQMNSLKPEDTAVYYCNADYRGYANLEGDYWGQGTQVTVSS | low polyreactivity
QVQLVESGGGLVQAGGSLRLSSAASGYIFDLNAMGRYRQAPGKERELVAAISTGGGTYYADSVKGRFTISRDNAKNTVYLQMNSLKPEDTAVYYCAADWGYWYAEYDYWGQGTLVTVSS | low polyreactivity
QVQLVESGGGLVQAGGSLRLSSAASGYTYYVYAMGWYRQAPGKERELVAAISGGSNTYYADSVKGRFTISRDNAKNTVYLQMNSRKPEDTAVFYCAKSSTTYRQRARYDYWGLGTQVTVSS | high polyreactivity
QVQLVESGGGLVQAGGSLRLSSAATGRTFPSNAMGWYRQAPGKERELVAAISVSSGRTYYADSVKGRFTISRDNAKNTVYLLMNSLKPEDTAVYYCAALWARYPYLFGFDYWGQGTQVTVSS | high polyreactivity
QVQLVESGGGLVQAGGSLRLSSAAYGSIFTYNAMGWYRQAPGKERELVDTISWRGGSTYYADSVKGRFTISRDNAKNTVYLQMNSLKPEDTAVYYCDKSWRGRYDYWGQGTQVTVSS | high polyreactivity
QVQLVESGGGLVQAGGSLRLSSAGSGFTFYKNAMGWYRQAPGKERELVAAITSSGGSTYYADSVKGRFTISRDNEKNTVYLQMNSLKPEDTAVYYCNKVYSKHYGYWGQGSQVTVSS | high polyreactivity
QVQLVESGGGLVQAGGSLRLSSAPSGFTFDENAMGWYRQAPGINYSGASTYYADSVKGRFTISRDNAKNTVYLQMNSLKPEDTAVYYCAAEVVAQMNYWGQGTQVTVSS | low polyreactivity

Sequence | polyreactivity (PSR sort gate)
QVQLVESGGGLVQAGGSLRLSSASSGSTFWIYAMGWYRQAPGKEREMVASIRRACNTYADSVKGRFTISRDNAKNTVYLQMNSLKPEDTAVYYCNARLYLPYGYRRSNGYESDYWGQGTQVTVSS | high polyreactivity
QVQLVESGGGLVQAGGSLRLSWAASGFTFTSYTMGWYTPAPGKERELVAAISNTGGSTYYADSVKGRFTISRDNAKNTVYLQMNSLKPEDTAVYYCAARTHTYGKFWRYYWGQGTQVTVSS | low polyreactivity
QVQLVESGGGLVQAGGSLRLSWAASGITFRKNAMGWYRQAPGKERQLVATITRRGGSTFYADSVKGRFTISRDNANNTVYLQFKSLKPVDSAVYYFAADYATRDGDYESWGQGTQVTVSS | high polyreactivity
QVQLVESGGGLVQAGGSLRLSWAASGLIFYDNMGWYRQAPGKERELVASISSSGGSTSYADSVKGRFTISRDNAKNTVYLQMNSLKPEDTAVYYCAAVRRGYKYVYWGQGTQVTVSS | low polyreactivity
QVQLVESGGGLVQAGGSLRLSWAASGLIFYWYAMGWYRQAPGKERELVAAINRGGSTYYADSVKGRFTISRDNAKNTVYLQMNSLKPEDTAVYYCAAGGYRGRKRFGWDYTYNYWGQGTQVTVSS | low polyreactivity
QVQLVESGGGLVQAGGSLRLSWAASGLTFTHNAMGWYRQAHGKERELVAAISRRGGSTYYADSVKGRFTISRDNAKNTVYLQRNSLKPEDTAVYYCNAPVKVRATTNWEYDYWGQGTEVTVSS | high polyreactivity
QVQLVESGGGLVQAGGSLRLSWAASGNIFLYYAMGWYRQAPGKERELVPDIDSSGASTYYADSVKGRFTISRDNAKNTVYLQMNSLKPEDTAVYYCAAEFHWWYAGDDYGYWGQGTQVTVSS | low polyreactivity
QVQLVESGGGLVQAGGSLRLSWAASGSFFKRNAMGSYRQAPGKEREFVAAITYNGGSTYYADSVKGRFTISRDNAMTTVYLQMNSLKPEDTAVYDCNNLYSRAQFRGGDYWAQGTQVTVSS | high polyreactivity
QVQLVESGGGLVQAGGSLRLSWAASGSIFQDYAMGWYRQAPGKERDLVAAISSSGTSTYYADSVKGRCTISRDNAKNTVSLQMNSLQPEDTAVFYCAAPPGRVARYDYWGQGTQVTVSS | low polyreactivity
QVQLVESGGGLVQAGGSLRLSWAASGSIFSIYAMGWYRQAPGKERDLVASITRSSGRTYYAYSVKGRFTISRDNAKNNVYLQMNSLKPEDTAVYYCAKDYIPLALDADDYCGQGTQVTVSS | low polyreactivity
QVQLVESGGGLVQAGGSLRLSWAASGSIFYWNAMGWYRQAPGKERELVATITITTSTNYADSVKGRFTISRDNAKNTVYLQMNSLKPEDTAVYYCNAGAPYRYLDEYNYWGQGTQVTVSS | low polyreactivity
QVQLVESGGGLVQAGGSLRLSWAASGSILLGYAMGWYRQAPGKERELVAAISRNGGSTYYADSVKGRFTISRDNAKNTVYLQMNSLKPEDTAVYYCNKYSGYKGTDGGDYWGQGTQVTVSS | low polyreactivity
QVQLVESGGGLVQAGGSLRLSWAASGYTFGKNAMGWYRQAPGKERELVAAISRSGGSTFYADSVKGRFTISRDNAKNTVYLQMNSLKPEDTAVYYCAAESYGYSAPYDYWGQGTQVTVSS | high polyreactivity
QVQLVESGGGLVQAGGSLRLSYAASGSIFGRYVMGWYRQAPGKERELVAAIKRSGGRTYYADSVKGRFTISRDNAKNTVYLQMNSLKPEDTAVYYCATYTGYSASKEVPYDYWGQGTQVTVSS | high polyreactivity
QVQLVESGGGLVQAGGSLRLTCAASAFIFHFNAMGWYRQAPGKERELVAAISRTGGTTYYADSVKGRFTISRDNAKNTVYLQMNSLKPEDTAVYYCAAYSKYGQHYDYWGQGTQVTVSS | high polyreactivity
QVQLVESGGGLVQAGGSLRLTCAASGFIFDTYAMGWYRQAPGKERELVAAISWTGTDTYYADSVKGRFTISRDNAKNTVYLQMNSLKPEDTAVYYCAARSRYKYSPSGDYWGQGTQVTVSS | high polyreactivity
QVQLVESGGGLVQAGGSLRLTCAASGFIFPNNAMGWYRQAPGKESELVAAISYSGGSTNYADSVKARFTISRDNAKNTVYLQMNSLKPEDTAVYYCAKADPAYLWGLREYDYWGQGTQVTVSS | low polyreactivity
QVQLVESGGGLVQAGGSLRLTCAASGFIFYYYTIGWYRQAPGKERELVAAIRTDGNTYYADSVKGRFTISRDNAKNTVYFQMNSLKPEDTAVYYCAAKIPRPYAMDYWGQGTQVTVSS | low polyreactivity
QVQLVESGGGLVQAGGSLRLTCAASGFIYADNAMGWDRQAPGQERELVAAISGSGGGTYYADSVKGRFTISRDNAKNTVYLQMNSLKPEDTAVYYCAKSQYHRFDYWGQGTQVTVSS | low polyreactivity
QVQLVESGGGLVQAGGSLRLTCAASGFTFHNYAMGWYRQAPGKERELVAVIRWRGGSTYYADSVKGRFTISRDNAKNTVYLQMNSLKPEDTAVYYCAKRARGSYYWGYNYWGQGTQVTVSS | high polyreactivity
